According to US20200261490:

Assays:
[1] = molecular target: recombinant human stanniocalcin 2, C-terminally myc-his-tagged
[2] = molecular target: recombinant human stanniocalcin 1, C-terminally myc-his-tagged
[3] = molecular target: STC2(C120A), human stanniocalcin 2 with cysteine 120 replaced by alanine, C-terminally myc-his-tagged
[4] = molecular target: untagged human STC2 (transgene-derived STC2 of transgenic mice; endogenous STC2 of 293T cells)

B1: murine PAPP-A2 (protein)
chain: QNGGGASLRRVETFNSQGGLPVLYFTGKRERLLLRPEVLAEIPREAFTVEAWVRPEGGQSNPAIIAGVFDNCSHTVNDKGWALGIRSGKDKGWRDARFFFSLRTDRMKKATIVTGHSRYQPGMWTHVAATYDGQHTALYVDGTRVASSRDQFGPLNSPFMASCRSLILGGDSSEDGHYFRGYLGTLVIWSTALSQTHLQHSPLHPSAADELTTLILTATFDPLMEQWAPFRDDLYPRLEVLQDSESQPEILSPLQPPPCGQTACDNVELISQYNKHGPLRREKVIRYQVVNIYDDEGLHPIVSDHQIRRQHEALNQAFSRYNISWQLSVHRVHNSTLRHRVVLVNCEPSKIGNDHCDPECEHPLTGFDGGDCRLQGRCYSWNRRDGLCHVECNNMLNDFDDGDCCDPEVTDVRKTCFDPDSPKRAYMSVKELKEALQLNSTHFLNVYFASSVREDLAGSATWPWDKEALSHLGGVVLNPTYYGMLGHTNIMIHEVGHVLGLYHVFKGVSERESCDDPCRETVPSMETGDLCADTAPTPKSKLCRDPEPANDTCGFTLFPGAPFNNYMSYTDDECTDNFTPNQVARMHCYLDLVYQQWSESQKPTPIPIPPMVIGQTHKSLTIHWLPPISGVVYDRAPDSMCSACTEDGTFRQYVYKASSGRVCDSSGYWTPEEAVGPPDVDQPCEPSLQAWSPELHLNHMNMTVPCPAEGCSLELLFQYPVQADTLTLWVTYLSMNSSKAFFDIEILLEHKKSMHLGPLNTFCDIPLTIKLHMDEKVMGAKVYTFDERMEIDAALLTSRPNSSLCSGCKPMSYQVLREPPFSSGLPMVVTHPHRKFTDTEVIPGQMYQYQVQAEAVGELGEASPPLSHIHGGPYCGDGKVERSIGEMCDDGDLLNGDGCSRACELEEGFNCAGEPSLCYRYEGDGVCEDFEKESIITDCGLHTPEGYLDQWASQAYSYHEDKEKCPVSLVTGEPHSMICTSWHPDSSPYHSFPGWFPCVFSLKKDQDAGSEQAKDSLQKDNEIWLEVCFNRPGVAVAIYIFLASDGVTPGEHQQATVTLYLIDVSGSNHSLGTYGLSCQQNPLVINVSHHVNVYPQHTSSMLLNFSSPLVGISAVALRTSSQTSSSAPSNCIPEQNYEGKSCAQRPCGEQGRCAPLLLDHTDMVNCTSSSPGHMECAITCQRGYVLQTSSGQYLRNMQKEILLTCSSGHWDKDVICKRLDCGVPDSSLVNYANFSCLEGTDFLKQCSISCVPPAKLQGLNPWLTCLEDGLWSLPEVYCKLECEAPPVIPNANLLLPHFLEGNHDVGTICKYECKPGYYVKETSGSQGKNKFLKIQCLDDGSWEQGSCVPVVCEPPPPVFEGMYECTDGFKLDSQCVLNCNQETEGIPILCTKEGLWTQEFKLCENLQGECPPPTSELNSVEYKCGQGYGIGAVCSPSCVIPPSDPVILPENVTTDTLEHWMEPVKVQSIVCTGRRQWHPDPSLVHCIQSCEPFQADGWCDTINNRAYCNYDGGDCCSSTLSSKKVIPFAADCDLDECTCRDPKAEENQ
For B1, which “proteolytic activity of murine PAPP-A2 towards radiolabeled IGFBP-5” value [1] is on record?
The value was “Murine PAPP-A and PAPP-A2 are inhibited by STC1 and STC2, but not STC2(C120A)”.

What about the “proteolytic activity of murine PAPP-A2 towards radiolabeled IGFBP-5” value [2] of the same protein?
Its value is “Murine PAPP-A and PAPP-A2 are inhibited by STC1 and STC2, but not STC2(C120A)”.

What about the “proteolytic activity of murine PAPP-A2 towards radiolabeled IGFBP-5” value [3] of the same protein?
Its value is “Murine PAPP-A and PAPP-A2 are inhibited by STC1 and STC2, but not STC2(C120A)”.

B2: human PAPP-A2 (pappalysin-2) (protein)
chain: PPEESNQNGGEGSYREAETFNSQVGLPILYFSGRRERLLLRPEVLAEIPREAFTVEAWVKPEGGQNNPAIIAGVFDNCSHTVSDKGWALGIRSGKDKGKRDARFFFSLCTDRVKKATILISHSRYQPGTWTHVAATYDGRHMALYVDGTQVASSLDQSGPLNSPFMASCRSLLLGGDSSEDGHYFRGHLGTLVFWSTALPQSHFQHSSQHSSGEEEATDLVLTASFEPVNTEWVPFRDEKYPRLEVLQGFEPEPEILSPLQPPLCGQTVCDNVELISQYNGYWPLRGEKVIRYQVVNICDDEGLNPIVSEEQIRLQHEALNEAFSRYNISWQLSVHQVHNSTLRHRVVLVNCEPSKIGNDHCDPECEHPLTGYDGGDCRLQGRCYSWNRRDGLCHVECNNMLNDFDDGDCCDPQVADVRKTCFDPDSPKRAYMSVKELKEALQLNSTHFLNIYFASSVREDLAGAATWPWDKDAVTHLGGIVLSPAYYGMPGHTDTMIHEVGHVLGLYHVFKGVSERESCNDPCKETVPSMETGDLCADTAPTPKSELCREPEPTSDTCGFTRFPGAPFTNYMSYTDDNCTDNFTPNQVARMHCYLDLVYQQWTESRKPTPIPIPPMVIGQTNKSLTIHWLPPISGVVYDRASGSLCGACTEDGTFRQYVHTASSRRVCDSSGYWTPEEAVGPPDVDQPCEPSLQAWSPEVHLYHMNMTVPCPTEGCSLELLFQHPVQADTLTLWVTSFFMESSQVLFDTEILLENKESVHLGPLDTFCDIPLTIKLHVDGKVSGVKVYTFDERIEIDAALLTSQPHSPLCSGCRPVRYQVLRDPPFASGLPVVVTHSHRKFTDVEVTPGQMYQYQVLAEAGGELGEASPPLNHIHGAPYCGDGKVSERLGEECDDGDLVSGDGCSKVCELEEGFNCVGEPSLCYMYEGDGICEPFERKTSIVDCGIYTPKGYLDQWATRAYSSHEDKKKCPVSLVTGEPHSLICTSYHPDLPNHRPLTGWFPCVASENETQDDRSEQPEGSLKKEDEVWLKVCFNRPGEARAIFIFLTTDGLVPGEHQQPTVTLYLTDVRGSNHSLGTYGLSCQHNPLIINVTHHQNVLFHHTTSVLLNFSSPRVGISAVALRTSSRIGLSAPSNCISEDEGQNHQGQSCIHRPCGKQDSCPSLLLDHADVVNCTSIGPGLMKCAITCQRGFALQASSGQYIRPMQKEILLTCSSGHWDQNVSCLPVDCGVPDPSLVNYANFSCSEGTKFLKRCSISCVPPAKLQGLSPWLTCLEDGLWSLPEVYCKLECDAPPIILNANLLLPHCLQDNHDVGTICKYECKPGYYVAESAEGKVRNKLLKIQCLEGGIWEQGSCIPVVCEPPPPVFEGMYECTNGFSLDSQCVLNCNQEREKLPILCTKEGLWTQEFKLCENLQGECPPPPSELNSVEYKCEQGYGIGAVCSPLCVIPPSDPVMLPENITADTLEHWMEPVKVQSIVCTGRRQWHPDPVLVHCIQSCEPFQADGWCDTINNRAYCHYDGGDCCSSTLSSKKVIPFAADCDLDECTCRDPKAEENQ
For B2, which “cleavage of 125I-IGFBP-5 by PAPP-A2” value [1] is on record?
The value was “both STCs were able to partially inhibit PAPP-A2 (pappalysin-2)”.

And the “cleavage of 125I-IGFBP-5 by PAPP-A2” value [2]?
Its value is “both STCs were able to partially inhibit PAPP-A2 (pappalysin-2)”.

B3: murine PAPP-A (protein)
chain: RGAEEPSPPSRALYFSGRGEQLRLRADLELPRDAFTLQVWLRAEGGQKSPAVITGLYDKCSYTSRDRGWVMGIHTTSDQGNRDPRYFFSLKTDRARKVTTIDAHRSYLPGQWVHLAATYDGRLMKLYMNGAQVATSAEQVGGIFSPLTQKCKVLMLGGSALNHNFRGHIEHFSLWKVARTQREIVSDMETRGLHTPLPQLLLQENWDNVKRTWSPMKDGNSPQVEFSNAHGFLLDTNLEPPLCGQTLCDNTEVISSYNQLPSFRQPKVVRYRVVNIYDDHHENPTVSWQQIDFQHQQLAEAFQHYNISWELEVLNINSSSLRHRLILANCDISKIGDEKCDPECNHTLTGHDGGDCRQLRYPAFMKKQQNGVCDMDCNYERFNFDGGECCDPDITDVTKTCFDPDSPHRAYLDVNELKNILRLDGSTHLNIFFANSSEEELAGVATWPWDKEALMHLGGIVLNPSFYGIPGHTHTMIHEIGHSLGLYHIFRGISEIQSCSDPCMETEPSFETGDLCNDTNPAPKHKFCGDPGPGNDTCGFHGFFNTPYNNFMSYADDDCTDSFTPNQVSRMHCYLDLVYQSWQPSRKPAPVALAPQVVGHTMDSVMLEWFPPIDGHFFERELGSACDLCLEGRILVQYAFNASSPMPCGPSGHWSPREAEGHPDVEQPCKSSVRTWSPNSAVNPHTVPPACPEPQGCYLELEFRYPLVPESLTIWVTFVSSDWDSSGAVNDIKLLTISGKNISLGPQNVFCDIPLTIRLRDVGEEVYGIQIYTLDEHLEIDAAMLTSTVDSPLCLQCKPLQYKVLRDPPLLEDVASLLHLNRRFMDTDLKLGSVYQYRIITISGNEESEPSPAAIYTHGSGYCGDGVIQKDQGEECDDMNKVNGDGCSLFCKQEVSFNCIDEPSRCYFHDGDGMCEEFEQKTSIKDCGVYTPQGFLDQWASNASVSHQDQQCPGWVVIGQPAASQVCRTKVIDLSEGISQHAWYPCTITYPYYHLPQTTFWLQTYFSQPMVAAAVIIHLVTDGTYYGDQKQETISVQLLDTKDQSHDLGLHVLSCRNNPLIIPVVHDLSQPFYHSQAVHVSFSSPLVAISGVALRSFDNFDPVTLSSCQRGETYSPAEQSCVHFACQAADCPELAVGNASLNCSSNHHYHGAQCTVSCQTGYVLQIQRDDELIKSQVGPSITVTCTEGKWNKQVACEPVDCGIPDHHHVYAASFSCPEGTTFGRRCSFQCRHPAQLKGNNSFLTCMEDGLWSFPEALCELMCLAPPPVPNADLQTARCRENKHKVGSFCKYKCKPGYHVPGSSRKSKKRAFKTQCTQDGSWQEGTCVPVTCDPPPPKFHGLYQCTNGFQFNSECRIKCEDSDASQGRGSNIIHCRKDGTWSGSFHVCREMQGQCSAPNQLNSNLKLQCPDGYAIGSECAISCLDHNSESIILPVNLTVRDIPHWMNPTRVQRIVCTAGLQWYPHPALIHCVKGCEPFMGDNYCDAINNRAFCNYDGGDCCTSTVKTKKVTPFPMSCDLQNDCACRDPEAQEHNRKDLRGYSHG
For B3, which “proteolytic activity of murine PAPP-A towards radiolabeled IGFBP-4” value [1] is on record?
The value was “Murine PAPP-A and PAPP-A2 are inhibited by STC1 and STC2, but not STC2(C120A)”.

And the “proteolytic activity towards IGFBP-4 in conditioned media of STC2 transgenic mouse embryonic fibroblasts” value [4]?
Its value is “conditioned media from MEFs derived from STC2 transgenic mice showed a marked reduction in PAPP-A activity”.

What about the “proteolytic activity of murine PAPP-A towards radiolabeled IGFBP-4” value [2] of the same protein?
Its value is “Murine PAPP-A and PAPP-A2 are inhibited by STC1 and STC2, but not STC2(C120A)”.

And the “proteolytic activity of murine PAPP-A towards radiolabeled IGFBP-4” value [3]?
Its value is “Murine PAPP-A and PAPP-A2 are inhibited by STC1 and STC2, but not STC2(C120A)”.
